Measurements as given in the DeepSol protein solubility set.

experiment: soluble on expression in E. coli; label from the status in PepcDB or PDB records

Row | Sequence | soluble on expression in E. coli
1 | MMRNSHTIENFERMPDGETSSLPDITNYQESVDENPVEECSAYSDTIATCSMCLQVAPHSQFFACTYPGCGYALKQKESVKSPTLFYRKERVLCGACAFLGDHAHHKAYLLKADKLAFLTASREIGGKLEMDMEEVCRLDKSHPVDNAMIIKSGGHVELEKISVVSFLSQAKTIEEWHSRHCMVNEMLSTIKYNREQGIDYLRKQSEKVMTLLNNAAQEIKSVSRTLPKQLTNQDKPHTSFGRRQHASQKNTEWANEEYSPFSSTCSESSTSTLHMAKALQSVDDEVTGGFGGFGFGFGASAVNKSLKGQIKSENYTSIAVTRLYKMLIRTEPKETALRRAADYLNELTHSKTEKKAVIEYMEKKHSIKWPEHII | not soluble
2 | MRNWKVTGKYPQLDGTGAVASTHIIIAAEDGAVIPQLIKQDLTSTNDTEIIKAALEEFKKSEYVEIAMGEAVQKVDDLEKISQETAKTAKTAQTAAGLAKVSAERTQRMINLQTIHVLTSGGNVEPDIYKGMLELIEPAKQGEYQAYDVFTVVDESHEDQAVEGNLVFVHVNEPFTYEAQTLKDLESEDKVTVIKYADLVKQD | not soluble
3 | GSHMGGWSIALHGGAGDIPFSLPPERRKPREEGLRHCLQIGVEALKAQKPPLDVVELVVRELENIEHFNAGIGSVLTNSGTVEMEASIMDGNTMKCGAVSGLSTVLNPISLARLVMDKTPHIYLAFQGAQDFAKQQGVETVDSSHLITAENVERLKLAIEANRVQVDYSQYNYPEPVKDDAEKELPLTNGDSQIG | soluble
4 | MAKAKAAPKKSVKKVEKSPSPEDSGIRRSGRQRIEMGKYEEGFDRHELEMVLRASLNEANQQGIKVPSTSSTASASAPAPVKKEIKPKNKPAPVPVVEKKRTIPSKKERDAERKALAAAAAAAATLTSMKKAPIKKSVPSTSSEADSTTPKKKGSAVKAKKVTIKTPSSEPAELTSSAAPVPVAVPEVPTAEATTSATTTPTTTNATIVKKEETKAEQPVKKVVKKKAISKKPPTTTNVTSTSDSSAAAAAAKKKKKPVVPKLSTKPTKQYLENEKQMRLMATQKCTYKEPKSLEKRIYFIPFYSLKLAKKNDQISYLNLISFIHKNLFFNF | soluble
5 | MFRKLGSSGSLWKPKNPHSLEYLKYLQGVLTKNEKVTENNKKILVEALRAIAEILIWGDQNDASVFDFFLERQMLLYFLKIMEQGNTPLNVQLLQTLNILFENIRHETSLYFLLSNNHVNSIISHKFDLQNDEIMAYYISFLKTLSFKLNPATIHFFFNETTEEFPLLVEVLKLYNWNESMVRIAVRNILLNIVRVQDDSMIIFAIKHTKEYLSELIDSLVGLSLEMDTFVRSAENVLANRERLRGKVDDLIDLIHYIGELLDVEAVAESLSILVTTRYLSPLLLSSISPRRDNHSLLLTPISALFFFSEFLLIVRHHETIYTFLSSFLFDTQNTLTTHWIRHNEKYCLEPITLSSPTGEYVNEDHVFFDFLLEAFDSSQADDSKAFYGLMLIYSMFQNNADVGELLSAANFPVLKESTTTSLAQQNLARLRIASTSSISKRTRAITEIGVEATEEDEIFHDVPEEQTLEDLVDDVLVDTENSAISDPEPKNVESESRSRFQSAVDELPPPSTSGCDGRLFDALSSIIKAVGTDDNRIRPITLELACLVIRQILMTVDDEKVHTSLTKLCFEVRLKLLSSIGQYVNGENLFLEWFEDEYAEFEVNHVNFDIIGHEMLLPPAATPLSNLLLHKRLPSGFEERIRTQIVFYLHIRKLERDLTGEGDTELPVRVLNSDQEPVAIGDCINLHNSDLLSCTVVPQQLCSLGKPGDRLARFLVTDRLQLILVEPDSRKAGWAIVRFVGLLQDTTINGDSTDSKVLHVVVEGQPSRIKKRHPVLTAKFIFDDHIRCMAAKQRLTKGRQTARGLKLQAICSALGVPRIDPATMTSSPRMNPFRIVKGCAPGSVRKTVSTSSSSSQGRPGHYSANLRSASRNAGMIPDDPTQPSSSSERRS | not soluble
6 | MEQFLDNIKDLEVTTVVRAQEALDKKETATFFIGRKTCPYCRKFAGTLSGVVAETKAHIYFINSEEPSQLNDLQAFRSRYGIPTVPGFVHITDGQINVRCDSSMSAQEIKDFAGL | soluble
7 | MKLVKLSLVAALAAGAFSAANATPLEEAIKDVDVSGVLRYRYDTGNFDKNFVNNSNLNNSKQDHKYRAQVNFSAAIADNFKAFVQFDYNAADGGYGANGIKNDQKGLFVRQLYLTYTNEDVATSVIAGKQQLNLIWTDNAIDGLVGTGVKVVNNSIDGLTLAAFAVDSFMAAEQGADLLEHSNISTTSNQAPFKVDSVGNLYGAAAVGSYDLAGGQFNPQLWLAYWDQVAFFYAVDAAYSTTIFDGINWTLEGAYLGNSLDSELDDKTHANGNLFALKGSIEVNGWDASLGGLYYGDKEKASTVVIEDQGNLGSLLAGEEIFYTTGSRLNGDTGRNIFGYVTGGYTFNETVRVGADFVYGGTKTEAANHLGGGKKLEAVARVDYKYSPKLNFSAFYSYVNLDQGVNTNESADHSTVRLQALYKF | soluble
8 | MSLTAYLHIGTTNTGNQEKQGFLMQNEEKLLQKAYIYPKSLRVANRHWALVDMVLELVQKEDILKKESVLSHITNERLLRAIENFKSESALHKDKKFIFSAEGIVWDFSTKKHVEILEKIMRELGFTQIYIIVYFRDTLGYLNSHCSQDHKNNMGYYSADFAPQDHPRKYIFDYEWICKTHAEVFGEENLIVRLLREDYVGGTLLKDFVYHLGLEWDESFVLKQTKNESFNLLGMELMSRLNQKDLKQDNLNSLLFMARRKFEGSKEKRLKFAVQKDIAKAYVDYFASSLEWVKNKYFPHKNSLFTPVNWEEYEQNYTLTHMLSKDWDDVADFIAQIIVSKNEIISSLKEQLELAREGHHHHHH | soluble
9 | MGSDKIHHHHHHMEVIRLDKVSLWRRTQEEFSYDLKKTLLSLIEGKYRKPAKKLVLDNVDLVVEKGDKIGIIGANGSGKSTLLKIISGILQPTTGTVRVRGQVAPLIELGAGFDAEISVMDNILLYGVLLGFSRAEMKERANSILEFAELQDYALVPVKGLSSGMVARLGFSIATDVQPNILILDEVLSVGDENFKNKCKQRIDNFWNGDATVLVVSHDLQFVKQYCNQLVWLSHGKIEFIGDAGEAIQNYLSTLTST | not soluble
10 | MSLRWEGTEEEAYKAEGTHFSGARRQTLVGRPAGQEAPAFETRYFEVEPGGYTTLERHEHTHVVMVVRGHAEVVLDDRVEPLTPLDCVYIAPHAWHQIHATGANEPLGFLCIVDSDRDREGHHHHHH | not soluble
11 | MSEEAEAGPSPKVNGENGNGTNTFDDLYVDDKMRRMIVDLQRQWLTDYHDSREKSLVALTEKLHQEFMEDQERVRRDLLVQFKIELDQTKEELEKKHAENLKEEIEKLSEKHQRELAVAKKKQWCWQCNSEAIYHCCWNTAYCSVECQQGHWQIHRKFCRRKKSNGGAPGPVQPIAEPTQSQQ | soluble
12 | GPGSMSSKAALLAVLAGSGQEHLVDDYDALSPSEQTTLATQILSYTNAQWKHMNVILRDSLRLLNLSNAAAGTGGGDAATAAPNITPPPADTIINVPALLAKRPSELAAIRAAGMRVVASGEGAVLLMAGGSGTRLGMTIPKGMVECDKLVSGRSLFAYHCQRIRKMERMAAAAAASLSQPSAVAAAGAAPVPPGAGRGTMPLLVTTSDQNDTATRQFFHDHDFFGLLPNQVFFSRQSSLPCYDEATGRVLMQARGSICLAPGGNAGVYESLAKASATTSGSQSVLAQIEARGVRYVQIVSVDNILARVGDPYFFGVAASYQAEVVLKTVPKVSAAEKVGVVAQVDGEWAVVEYTEIGDRRSAETDPATGELAFNCGSIASHCCSLDFLALAATYMETSTFYHAARKTIPTINGPAPAIKLEAFIFDVFRYAKDVPSRAERAKKAPLPDALQILQVDRSMEFAPIKNADGAAADTPTTAAQLLLDLHTRWVTEAIEAAPGTYAVASTSTSAMYTALERATALQRLRDGQCCWEISPLVSYEGEGLAAYVGQLIHRSATGSGVLGLEEATAGTANM | soluble
13 | MGSDKIHHHHHHMYLLDSAIAKQIVSRTMKIIGHNINVMNGQGMILGSGDPKRIGSIHEGALLAIAQNRNVEISQEVAASLHGVKPGINLPLHYQGQIIGVVGITGDPNELTHYGELLKMTAEMIVEQANLQDKLQWENRQREEFILQLIKAETDDRQLHRWAKQLDIDMSMPRVAAIIEISEKSTPIKIPKRPSDPLAIDLADTLQVNASDDRNHRVGETLKQVLHLLQYPDRGNLIAMTSMSQLVILKPAFLDGKQWDPELENQRIDRLLQRLPAQMNLNFKIALGHFFPENGGIARSYQTALETLALGKQLNPEGNKYLFEDYSLQVLLSGLKYDWRGQALAMPYQQLAKADKNGQLRKTLAAYITHFGDAQQCANTLFIHRNTLRYRLDKIQQITQADIQSLHGLLSLYLGQLIDSSKNTG | not soluble
14 | MKQLWFAMSLVAASLFFSANASADPASGALLQQMNIASQSLNYELSFVSITKQGVESLRYRHARLDGRPLAQLLQLDGPRREVVQRGNEISYFEPGLEPFTLNGDYIVDSLPSLIYTDFKRLAPYYDFISVGRTRIADRLCEVIRVVARDGTRYSYIVWMDMDTKLPMRVDLLDRDGETLEQFRVIAFTVSQDIGSNMQALAKANLPPLLSVPGGEKTKFNWSPSWVPQGFSEVSSSRRPLPTMDNLPIESRLYSDGLFSFSVNVNRATQNSSDQMLRTGRRTVYSSVRDNAEITIVGELPPQTAKRIADSIKFRAVQ | not soluble
15 | MDSQKLRTEGKKMLDFVADYWDGIRDRKPLPDVKPGYINDLVPAQAPATPEDWAKIFDDLENVVVNGATHWHHPHFFAYFPTALSYQSIMADILSGGIAGIGFTWKSCPSMTELEMSSLDWVVDLMGLPEHFKNSHNGPGCGIIQSTASDSTMIAIMAARATHVERIKSEPTFMKWVSETGVGKTLKNIFDRVKVNKVDDEASGMITPYFHDPTVFERFVMYCSDQAHSSVEKGAMLSAVRMRKLKATRGFLGNYGVSRETLQNAIKEDRARGYIPFMFLATVGTTCSCGVDQVDELGPVCVEEGLYLHVDAAYAGTFALCEEFKYLIRGMEHVDSFNFNLHKAGMVNFDCSPMWFKNGTHVSRYFNVDAVYLAHEYQTTASDYRHLQVALGRRFRSLKIWFVLRNMGVDKIREYLRRTELLAAEFSKLILENGKFEHFVPQHLGLTCFRLKNSTNADNEKLCNAINDDRRIHLVPSTVHGTYFLRMVVCSQLTTLDDIIYARDVIFELAEKLF | not soluble
16 | MTEPKKEIIEDENHGISKKIPTDPRQYEKVTEGCRLLVMMASQEEERWAEVISRCRAANGSIKFYVHYIDCNRRLDEWVQSDRLNLASCELPKKGGKKGAHLREENRDSNENEGKKSGRKRKIPLLPMDDLKAESVDPLQAISTMTSGSTPSLRGSMSMVGHSEDAMTRIRNVECIELGRSRIQPWYFAPYPQQLTSLDCIYICEFCLKYLKSKTCLKRHMEKCAMCHPPGNQIYSHDKLSFFEIDGRKNKSYAQNLCLLAKLFLDHKTLYYDTDPFLFYVLTEEDEKGHHIVGYFSKEKESAEEYNVACILVLPPFQKKGYGSLLIEFSYELSKIEQKTGSPEKPLSDLGLLSYRSYWSMAIMKELFAFKRRHPGEDITVQDISQSTSIKREDVVSTLQQLDLYKYYKGSYIIVISDEKRQVYEKRIEAAKKKTRINPAALQWRPKEYGKKRAQIMF | not soluble
17 | MGSDKIHHHHHHMSLQISLVNNISQIGSQAWHALFGSEHPFTRYEYLLALESSGACSAQTGWQPRHLIVIEKAAVTENPHSAAAKTDNILALMPLYEKHHSYGEYVFDWAWAEAYERHGLAYYPKLLCAVPFTPVTGTRLAMDSRLDVGQQDAVWTAVVDFLQQQIMTQGYSSWHYLFTNATQSAVLAQAHLTPPSQSQSNQAQRNQTQALQPQANSQASAIKGQPIARLGTQFHWFNRGYRQFDDFLQVMTSRKRKNIQKERAAISKFELSFEFIHGDNITSSQWRSFSLCYQQTYLKRSGHTGYLNSEFFQAIGTSMADAIRLLRVSDKAGKDIAYALYFASDSRLYGRYWGAFEDIPGLHFEACYYQGIEYAIAQGLSCFDAGAQGEHKVLRGFEPIETHSFHAIAHEGFKGAIEDFCQQERRNMQIYMAEQAKNLPYKNSQ | not soluble
18 | ARYLDVTSRRDPEHSHRTYYVTGQVFFASADRFTASFDLREKVETLAIDLREAHFWDITAVAALDKVVLKLRRAGISVDVVGMNRATATLVDRFGVHDKPDGIDSLMGH | not soluble
